Experimental data taken from paper doi:10.1101/2025.05.18.654456.

Biological target: F-actin (actin purified from rabbit white skeletal muscle, polymerised) (rabbit), P68135
Assay: co-sedimentation; various concentrations of His-α-actinin in A50 buffer (50 mM HEPES-KOH pH 7.6, 50 mM KCl, 5 mM MgCl2, 1 mM EGTA) mixed with 10 μM G-actin on ice, 25°C for 60 min to polymerise actin, centrifuged at 100,000 ×g for 10 min at 25°C; supernatant and pellet on SDS-PAGE, Coomassie; model fitting; apparent dissociation constant
Settings: remark: other sources report otherwise

B1: Recombinant human α-actinin I (6×His-tagged), P12814 1-892 (natural protein)
chain: MDHYDSQQTNDYMQPEEDWDRDLLLDPAWEKQQRKTFTAWCNSHLRKAGTQIENIEEDFRDGLKLMLLLEVISGERLAKPERGKMRVHKISNVNKALDFIASKGVKLVSIGAEEIVDGNVKMTLGMIWTIILRFAIQDISVEETSAKEGLLLWCQRKTAPYKNVNIQNFHISWKDGLGFCALIHRHRPELIDYGKLRKDDPLTNLNTAFDVAEKYLDIPKMLDAEDIVGTARPDEKAIMTYVSSFYHAFSGAQKAETAANRICKVLAVNQENEQLMEDYEKLASDLLEWIRRTIPWLENRVPENTMHAMQQKLEDFRDYRRLHKPPKVQEKCQLEINFNTLQTKLRLSNRPAFMPSEGRMVSDINNAWGCLEQVEKGYEEWLLNEIRRLERLDHLAEKFRQKASIHEAWTDGKEAMLRQKDYETATLSEIKALLKKHEAFESDLAAHQDRVEQIAAIAQELNELDYYDSPSVNARCQKICDQWDNLGALTQKRREALERTEKLLETIDQLYLEYAKRAAPFNNWMEGAMEDLQDTFIVHTIEEIQGLTTAHEQFKATLPDADKERLAILGIHNEVSKIVQTYHVNMAGTNPYTTITPQEINGKWDHVRQLVPRRDQALTEEHARQQHNERLRKQFGAQANVIGPWIQTKMEEIGRISIEMHGTLEDQLSHLRQYEKSIVNYKPKIDQLEGDHQLIQEALIFDNKHTNYTMEHIRVGWEQLLTTIARTINEVENQILTRDAKGISQEQMNEFRASFNHFDRDHSGTLGPEEFKACLISLGYDIGNDPQGEAEFARIMSIVDPNRLGVVTFQAFIDFMSRETADTDTADQVMASFKILAGDKNYITMDELRRELPPDQAEYCIARMAPYTGPDSVPGALDYMSFSTALYGESDL
- Kd: 1400 nM
